One assay addresses T1, biotin-labeled RSV-IQN51 (Respiratory Syncytial Virus (F1 part), biotin label (position not stated in the example); captured on streptavidin-allophycocyanin in the assay).
T1 construct: Synthetic peptide; In the assay it was pre-mixed with streptavidin-APC (final 100 nM IQN51-biotin, 10 nM streptavidin-APC); also called IQN51-biotin; IQN51-APC
Description: time-resolved FRET competition, IQN51-APC/C39-Eu assay; competitor C39-Eu.

In another assay the target is T2, biotin-labeled RSV-IQN57 (Respiratory Syncytial Virus (F1 part), biotin label (position not stated in the example); captured on streptavidin-allophycocyanin in the assay).
T2 construct: Synthetic peptide; In the assay it was pre-mixed with streptavidin-APC (final 100 nM IQN57-biotin, 10 nM streptavidin-APC); also called IQN57-biotin; IQN57-APC
T2 peptide: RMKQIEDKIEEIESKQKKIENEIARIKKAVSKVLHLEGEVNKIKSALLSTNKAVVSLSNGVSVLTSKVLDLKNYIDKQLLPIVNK
Nature of the assay: time-resolved FRET competition, IQN57-APC/C45-Eu assay; competitor C45-Eu.

The text below walks through data of patent US20100035363A1 (TIBOTEC PHARMACEUTICALS, published 2010).

Description for biotin-labeled RSV-IQN51: (§1) Test compounds were serially diluted in PBS and then added to 384-well plates.
In an alternative set-up, equal volumes of the IQN51-biotin and strepatavidin-APC solution were mixed and incubated for 30 min at room temperature in tubes. Next, these mixes were transferred from the tubes to plates containing test compounds (ratio 2:1) and incubated for 2 h at room temperature. […] After incubating the plates for 30 min at room temperature, the fluorescence resonance energy transfer (FRET) signal was detected using a Viewlux reader and used to calculate the IC₅₀ of the test compound. A final DMSO percentage of 0.5% was applied. This assay is named the IQN51-APC/C39-Eu assay.
Description for biotin-labeled RSV-IQN57: as §1
Equal volumes of the IQN57-biotin and strepatavidin-APC solution were mixed and incubated for 30 min at room temperature in tubes. Next, these mixes were transferred from the tubes to plates containing test compounds (ratio 2:1) and incubated for 2 h at room temperature. […] After incubating the plates for 30 min at room temperature, the fluorescence resonance energy transfer (FRET) signal was detected using a Viewlux reader and used to calculate the 50% inhibitory concentration (IC₅₀) of the test compound. IC₅₀ is the drug concentration at which 50% of the FRET signal (or 6HB complex formation) is inhibited. A final DMSO percentage of 0.5% was applied. This assay is named the IQN57-APC/C45-Eu assay.

In general, IC50 refers to the concentration needed to halve the response being measured. A lower IC50 goes with inhibition by little substance. For the molecule VFPSDEFDASISQVNEKINQSLAFIRKSDELLHNVNAGK [RSV-C39], the IC50 with biotin-labeled RSV-IQN51 stood at 76 nM; with biotin-labeled RSV-IQN57, 64 nM.

For NFYDPLVFPSDEFDASISQVNEKINQSLAFIRKSDELLHNVNAGK [RSV-C45], the 50% inhibitory concentration (IC50) with biotin-labeled RSV-IQN51 is 76 nM; with biotin-labeled RSV-IQN57 it was 74 nM.
